From CN102875676A (WUXI PROGRAMMED ARTIFICIAL MOLECULAR EVOLUTION CO LTD, dated 2013)

Tests used:
[1] = target: T1, 重组人VEGF (recombinant human VEGF, VEGF-A) (human, UniProt P15692-4 27-191, limits assumed); assay: Friguet method (solution equilibrium with human VEGF, ELISA of free antibody on immobilised VEGF), Fab
[2] = target: T1, 重组人VEGF (recombinant human VEGF, VEGF-A); assay: Friguet method, full-length antibody

T1 sequence (P15692 other isoform, or with tags, fused parts or gaps limits assumed): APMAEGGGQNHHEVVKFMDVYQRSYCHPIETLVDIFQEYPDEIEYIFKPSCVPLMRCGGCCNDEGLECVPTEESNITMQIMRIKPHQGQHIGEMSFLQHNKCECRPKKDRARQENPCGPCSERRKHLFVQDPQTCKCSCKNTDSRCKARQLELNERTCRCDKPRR

B1: 3D7 Fab (原型分子3D7) (Fab, V domains shown)
VH: EVQLVESGGGLVQPGGSLRLSCAASGFNIKDTYIHWVRQAPGKGLEWVAYIAPSYGYTRYADSVKGRFTISADTSKNTAYLQMNSLRAEDTAVYYCSRSSDASYSYSAWGQGTLVTVSS
VL: DIVMTQSPSSLSASVGDRVTITCRASQFVGFYIHWYQQKPGKAPKLLIYAASERATGVPSRFSGSRSGTDFTLTISSLQPEDFATYYCQQWLNNPFTFGQGTKVEIKR
notes: Tested as a Fab (phage supernatant in the screen); also called 原型抗体3D7
[1]
  Kd: 1.56 nM

B2: 6B2 Fab (候选分子6B2) (Fab, V domains shown)
VH: EVQLVQSGGGVVQPRRSLRLSCAASGFDIYDDDIHWVRQAPGKGLEWVYIAPSYGYTRYADSVKGRFTVSRDNSKNTLYLQMNSLRAEDTSVYYCARSSDASYSYSAMDYWGQGTLVTVSS
VL: DIQMTQSPSSVSASIGDRVTITCRASQDASYSSAWYQQRPGKAPELLIYSAASYESGVPSRFSGSGSGTDFTLTISSLQAEDFATYYCQSSASPATFGQGTRLEIKR
[1]
  Kd: 0.276 nM

B3: 全长6B2 (F6B2), full-length antibody (antibody, V domains shown)
VH: EVQLVQSGGGVVQPRRSLRLSCAASGFDIYDDDIHWVRQAPGKGLEWVYIAPSYGYTRYADSVKGRFTVSRDNSKNTLYLQMNSLRAEDTSVYYCARSSDASYSYSAMDYWGQGTLVTVSS
VL: DIQMTQSPSSVSASIGDRVTITCRASQDASYSSAWYQQRPGKAPELLIYSAASYESGVPSRFSGSGSGTDFTLTISSLQAEDFATYYCQSSASPATFGQGTRLEIKR
notes: expressed in DG44 cells; also called 6B2全长抗体分子
[2]
  Kd: 0.022 nM
